This note sets out measurements from patent US10442866 (BEIJING MABWORKS BIOTECH, dated 2019).

Assay [1] has as its target truncant 1-mFc (containing CRD2/3/4). The experiment in a line: ELISA with recombinant mFc-tagged OX40 ECD proteins, OD450. The source says:
(§1) There are four individual cysteine enriched domains (CRD) in OX40 extracellular domain (ECD), namely CRD1, CRD2, CRD3 and CRD4, respectively. Based on the structure of OX40, four recombinant OX40 proteins were generated, i.e., the full-length OX40 ECD (containing CRD1/2/3/4) (SEQ ID NO.: 38), truncant 1-mFc (containing CRD2/3/4) (SEQ ID NO.: 39), truncant 2-mFc (containing CRD/3/4) (SEQ ID NO.: 40) and truncant 3-mFc (containing CRD/4) (SEQ ID NO.: 41). All the recombinant proteins were linked with a signal peptide (SEQ ID NO.: 42) at the N terminus for protein secretion and a mFc-tag (SEQ ID NO.: 43) at the C terminus for ELISA assay. DNA sequences were synthesized and subcloned into pcDNA3.1 vector. The expression and purification of the recombinant proteins were carried out according to the protocols in Example 10. ELISA assay was performed to assess binding capacity of mAbs to recombinant OX40 proteins, following the protocol in Example 2.

Assay [2] deals with truncant 2-mFc (containing CRD/3/4). The description is as above.
Chain of truncant 2-mFc (containing CRD/3/4) (chain, as listed by the source limits assumed): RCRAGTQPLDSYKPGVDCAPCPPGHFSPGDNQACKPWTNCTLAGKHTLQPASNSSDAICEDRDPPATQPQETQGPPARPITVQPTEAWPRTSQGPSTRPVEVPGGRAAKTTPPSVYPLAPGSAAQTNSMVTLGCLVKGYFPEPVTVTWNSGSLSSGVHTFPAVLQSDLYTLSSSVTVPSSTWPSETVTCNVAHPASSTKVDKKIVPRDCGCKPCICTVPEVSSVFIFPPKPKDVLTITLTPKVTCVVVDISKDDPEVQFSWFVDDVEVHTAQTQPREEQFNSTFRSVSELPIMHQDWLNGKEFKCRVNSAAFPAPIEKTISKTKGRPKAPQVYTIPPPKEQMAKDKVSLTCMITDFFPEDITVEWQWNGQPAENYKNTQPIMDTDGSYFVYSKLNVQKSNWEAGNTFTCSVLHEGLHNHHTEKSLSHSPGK
Excerpt: as §1

The target of assay [3] is truncant 3-mFc (containing CRD/4). Described as above.
Chain of truncant 3-mFc (containing CRD/4) (chain, as listed by the source limits assumed): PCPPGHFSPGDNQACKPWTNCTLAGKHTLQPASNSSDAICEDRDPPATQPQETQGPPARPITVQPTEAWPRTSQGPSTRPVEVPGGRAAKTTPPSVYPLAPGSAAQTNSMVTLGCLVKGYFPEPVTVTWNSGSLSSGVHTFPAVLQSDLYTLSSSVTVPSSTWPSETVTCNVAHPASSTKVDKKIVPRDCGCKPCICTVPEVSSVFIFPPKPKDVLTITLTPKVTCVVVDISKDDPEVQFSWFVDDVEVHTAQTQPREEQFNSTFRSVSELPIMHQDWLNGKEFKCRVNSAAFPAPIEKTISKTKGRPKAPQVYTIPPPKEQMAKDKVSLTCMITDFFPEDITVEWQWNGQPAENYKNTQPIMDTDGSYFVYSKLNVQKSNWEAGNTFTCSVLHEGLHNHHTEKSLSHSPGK
Excerpt: as §1

Assay [4] deals with full length OX40 ECD-mFc (containing CRD1/2/3/4). Described as above.
Chain of full length OX40 ECD-mFc (containing CRD1/2/3/4) (chain, as listed by the source limits assumed): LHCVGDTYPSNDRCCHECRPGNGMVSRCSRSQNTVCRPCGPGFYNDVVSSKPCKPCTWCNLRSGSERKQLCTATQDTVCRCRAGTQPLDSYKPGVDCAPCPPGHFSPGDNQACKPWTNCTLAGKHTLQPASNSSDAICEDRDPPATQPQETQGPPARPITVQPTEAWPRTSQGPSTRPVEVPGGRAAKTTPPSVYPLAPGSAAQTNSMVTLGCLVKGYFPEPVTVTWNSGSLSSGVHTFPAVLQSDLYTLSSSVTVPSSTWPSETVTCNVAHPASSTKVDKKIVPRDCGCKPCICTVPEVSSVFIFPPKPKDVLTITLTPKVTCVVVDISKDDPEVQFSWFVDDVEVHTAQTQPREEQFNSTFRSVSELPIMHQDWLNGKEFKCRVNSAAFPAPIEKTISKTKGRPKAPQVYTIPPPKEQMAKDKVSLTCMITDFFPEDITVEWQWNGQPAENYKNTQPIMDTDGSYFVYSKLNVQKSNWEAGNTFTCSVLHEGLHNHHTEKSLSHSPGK
Excerpt: as §1

Assay [5] concerns the target T1, human 4-1BB (TNFRSF9, ACRO, Cat#:41B-H522a) (human, UniProt Q07011 24-186).
T1 construct: bought recombinant protein
The experiment in a line: ELISA on coated recombinant human TNFRSF protein, OD450. The protocol: (§2) ELISA assays were performed to determine the binding specificity of anti-OX40 antibodies to human OX40, in comparison to other human TNFRSF members with homologous amino acid sequences, following the protocol described in Example 2.

The target of assay [6] is T2, human DR6 (TNFRSF21, Sino Biological, Cat#: 10175-H08H) (human, UniProt O75509 42-349).
T2 construct: bought recombinant protein
T2 sequence (looked up): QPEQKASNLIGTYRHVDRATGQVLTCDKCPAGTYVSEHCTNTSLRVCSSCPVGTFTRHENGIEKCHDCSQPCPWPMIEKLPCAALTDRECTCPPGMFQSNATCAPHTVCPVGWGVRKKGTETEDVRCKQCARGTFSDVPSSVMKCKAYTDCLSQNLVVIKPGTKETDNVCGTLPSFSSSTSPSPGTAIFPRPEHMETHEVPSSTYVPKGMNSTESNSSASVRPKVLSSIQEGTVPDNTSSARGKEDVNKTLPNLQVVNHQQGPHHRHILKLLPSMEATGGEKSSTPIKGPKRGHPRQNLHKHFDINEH
The description is as above. The protocol:
as §2

Assay [7] addresses T3, human HVEM-mFc (TNFRSF14, ACRO, Cat#: HVM-H5255) (human, UniProt Q92956 39-202).
T3 construct: bought protein; also called HVEM(TNFRSF14); not shown: mouse Fc (mFc)
T3 sequence (looked up): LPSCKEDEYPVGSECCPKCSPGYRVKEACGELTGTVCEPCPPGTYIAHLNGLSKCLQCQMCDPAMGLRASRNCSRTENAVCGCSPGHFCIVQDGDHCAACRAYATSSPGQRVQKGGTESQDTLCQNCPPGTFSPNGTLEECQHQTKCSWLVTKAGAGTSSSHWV
Described as above. The protocol: as §2

In assay [8] the target is T4, human CD40-his (TNFRSF5, Sino Biological, Cat#:10774-H08H) (human, UniProt P25942 21-193).
T4 construct: bought protein; also called recombinant human CD40 (TNFRSF5); not shown: His tag
T4 sequence (P25942 21-193 limits assumed): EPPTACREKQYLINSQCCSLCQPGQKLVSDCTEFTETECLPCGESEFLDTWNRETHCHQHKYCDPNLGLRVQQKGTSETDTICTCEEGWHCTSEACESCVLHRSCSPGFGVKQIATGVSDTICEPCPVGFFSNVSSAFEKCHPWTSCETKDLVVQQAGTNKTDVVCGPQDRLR
Described as above. The protocol:
as §2

Assay [9] deals with T5, human NGFR (TNFRSF16, Sino Biological, Cat#: 13184-H08H) (human, UniProt P08138 29-250).
T5 construct: bought recombinant protein
T5 sequence (looked up): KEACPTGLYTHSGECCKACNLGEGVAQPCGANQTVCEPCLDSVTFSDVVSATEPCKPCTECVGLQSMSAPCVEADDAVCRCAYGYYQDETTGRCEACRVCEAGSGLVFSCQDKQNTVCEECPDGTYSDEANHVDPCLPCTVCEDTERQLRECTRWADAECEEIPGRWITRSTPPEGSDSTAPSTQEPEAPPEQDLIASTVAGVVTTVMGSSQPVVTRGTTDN
Described as above. The protocol:
as §2

Assay [10] concerns the target T6, rhesus OX40 expressed on HEK293A cells (rhesus, UniProt P43489 29-277 (human entry)).
T6 construct: also called HEK293A/rhOX40; HEK293A/rhesusOX40 cells
T6 chain: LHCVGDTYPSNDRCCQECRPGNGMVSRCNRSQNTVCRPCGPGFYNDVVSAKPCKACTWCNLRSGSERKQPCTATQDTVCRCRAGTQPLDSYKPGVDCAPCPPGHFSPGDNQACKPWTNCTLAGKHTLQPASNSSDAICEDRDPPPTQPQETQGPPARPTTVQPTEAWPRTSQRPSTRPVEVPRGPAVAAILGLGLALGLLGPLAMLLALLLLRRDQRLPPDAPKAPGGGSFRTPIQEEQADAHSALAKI
Description: FACS on HEK293A/rhesus OX40 cells, MFI (panel without title; monkey OX40 by the legend). The protocol: Briefly, 10^5 HEK293A cells were seeded into each well of the 96-well plates and serially diluted anti-OX40 antibodies were added to the plates. After incubated at 4° C. for 1 hour, plates were washed 3 times with PBST. Then, an APC coupled Goat Anti-Mouse IgG (BioLegen, US, Cat#: 405308) diluted 500× was added to the plates. After incubation at 4° C. for 1 hour, the plates were washed with PBS for 3 times and then cell fluorescence was monitored using a FACS machine (BD).
Example 15 Humanized Anti-OX40 Antibodies Bound to Human or Rhesus OX40 Expressed on HEK293A Cells The humanized anti-OX40 antibodies were also tested for their ability of binding to HEK293A/huOX40 cells or HEK293A/rhOX40 cells, following the FACS analysis protocol as described in Example 5.

Numbering of substitutions follows the chain as printed.

Chain of truncant 1-mFc (containing CRD2/3/4) (chain, as listed by the source limits assumed): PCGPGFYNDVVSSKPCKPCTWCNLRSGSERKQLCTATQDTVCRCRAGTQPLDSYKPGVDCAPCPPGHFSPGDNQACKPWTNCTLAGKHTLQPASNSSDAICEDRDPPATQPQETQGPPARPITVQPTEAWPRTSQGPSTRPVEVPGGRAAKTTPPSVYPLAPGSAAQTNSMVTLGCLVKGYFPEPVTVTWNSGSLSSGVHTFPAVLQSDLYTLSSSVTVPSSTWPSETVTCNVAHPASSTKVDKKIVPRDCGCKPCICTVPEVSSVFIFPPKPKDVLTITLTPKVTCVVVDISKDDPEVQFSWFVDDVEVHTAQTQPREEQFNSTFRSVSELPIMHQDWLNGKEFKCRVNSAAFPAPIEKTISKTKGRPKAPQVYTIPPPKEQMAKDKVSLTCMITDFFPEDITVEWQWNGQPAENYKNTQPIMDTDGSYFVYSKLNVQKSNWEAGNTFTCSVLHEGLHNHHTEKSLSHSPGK

B1: 68C8-VH2VL3 (antibody, human IgG1, kappa, V domains shown)
VH: QVQLVQSGAEVKKPGASVKVSCKVSGDTFTSYWITWVRQRPGKGLEWMGDIHPGSGSTNNNEKFKNRVTMTVDTSTDTAYMELSSLRSEDTAVYYCATLRPYYFVYWGQGTLVTVSS
VL: DIQMTQSPSSLSASVGDRVTITCRASQDISNYLNWYQQKPGKTVKLLIYYTSRLLSGVPSRFSGSGSGTDYTLTISSLQPEDFATYFCQQGNTLPLTFGQGTRLEIKR
notes: humanized; also called 68C8-H2L3; 68C8H2L3
For B1, the binding result was “binds” in assay [1]; “binds” in assay [2]; “no binding” in [3]; “binds” in assay [4]; “no binding (tested: about 10000 ng/mL (log about 4))” in [5]; “no binding (tested: about 10000 ng/mL (log about 4))” in [6]. The binding result in [7] is reported as “no binding (tested: about 10000 ng/mL (log about 4))”; in assay [8] it was “no binding (tested: about 10000 ng/mL (log about 4))”; in assay [9] it was “no binding (tested: about 10000 ng/mL (log about 4))”; in [10], “binds”.

B2: 71H8-VH2VL3 (antibody, human IgG1, kappa, V domains shown)
VH: B1 VH with D27Y, H52Y, N60Q, N66S
VL: B1 VL
notes: humanized; also called 71H8-H2L3; 71H8H2L3
Regarding B2, the binding result is given as “binds” in assay [1]; “binds” in [2]; “no binding” in [3]; “binds” in [4]; “no binding (tested: about 10000 ng/mL (log about 4))” in assay [5]; “no binding (tested: about 10000 ng/mL (log about 4))” in [6]. Moreover, the binding result in [7] is on record as “no binding (tested: about 10000 ng/mL (log about 4))”; in assay [8] it was “no binding (tested: about 10000 ng/mL (log about 4))”; in assay [9], “no binding (tested: about 10000 ng/mL (log about 4))”; in [10], “binds”.
